Biological target: CHIKV nsP2 protease (Chikungunya virus)
Experiment: BLI

Substance pantinin-1 (peptide) has a Kd of 9.29 µM.

From paper doi:10.1101/2025.06.29.662183
